Legend:
PLA2 activated by TGase = target: T1, PLA2 activated by TGase (Cavia cutleri, UniProt P08587); experiment: Inhibitory effect of synthetic peptides on PLA2 activated by TGase in vitro; type: biochemical, Bovine; conditions: peptides 1×10^−8 M, preincubated with 0.001 Unit TGase 15 min at 37° C.
T1 construct: pre-incubated with 0.001 Unit TGase (Guinea pig liver, Sigma); purchased Sigma
T1 sequence (P08587 2-690 limits assumed): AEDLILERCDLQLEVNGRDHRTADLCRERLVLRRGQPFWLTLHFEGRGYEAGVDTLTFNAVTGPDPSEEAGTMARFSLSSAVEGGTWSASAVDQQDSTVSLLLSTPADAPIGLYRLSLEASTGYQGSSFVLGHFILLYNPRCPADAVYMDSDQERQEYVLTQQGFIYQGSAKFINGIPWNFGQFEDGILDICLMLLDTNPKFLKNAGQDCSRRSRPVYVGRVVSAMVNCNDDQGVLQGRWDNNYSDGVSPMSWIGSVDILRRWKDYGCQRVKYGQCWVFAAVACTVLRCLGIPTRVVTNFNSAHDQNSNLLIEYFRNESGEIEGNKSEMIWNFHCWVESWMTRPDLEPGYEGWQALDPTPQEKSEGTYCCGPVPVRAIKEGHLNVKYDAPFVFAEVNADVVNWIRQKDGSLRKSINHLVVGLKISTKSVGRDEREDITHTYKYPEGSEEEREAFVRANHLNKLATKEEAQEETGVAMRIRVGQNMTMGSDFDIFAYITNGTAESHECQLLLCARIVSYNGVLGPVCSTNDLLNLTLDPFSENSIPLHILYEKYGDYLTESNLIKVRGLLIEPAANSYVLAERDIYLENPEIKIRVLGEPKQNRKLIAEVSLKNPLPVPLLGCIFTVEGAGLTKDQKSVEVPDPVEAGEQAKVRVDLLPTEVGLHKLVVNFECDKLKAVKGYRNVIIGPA
Description: A series of synthetic peptides (1×10^−8 M) were pre-incubated with 0.001 Unit TGase (Guinea pig liver, Sigma) in […] of assay buffer (75 mM Tris-Cl, pH 9.0, 5 mM CaCl2, 1 mg/ml fatty acid free bovine serum albumin) for 15 min at 37° C. We employed a negative control as assay buffer without TGase, and a positive control as TGase without peptides. After pre-incubation, […] of 1-acyl-2-[1-^14C] arachidonic acid-glycerophospho -ethanolamine (about 2×10^5 dpm) was added in pre-incubated mixture, and incubated for 1 hr at 37° C. The reaction was terminated by adding 0.75 ml of Dole's reagent, and followed the same procedure described as above.
For inhibitory test of the peptides given, each value is the mean of data from three separate experiments (S.D.<10%). The increased PLA2 activity by TGase was determined as 100% that was 11.22 pmole arachidonyl/hr. % Inhibition was shown in FIG. 3.

[1] = target: T2, PLA2 (Bovine pancreas, EC 3.1.1.4) (Bos taurus, UniProt P00593); experiment: Inhibitory effect of synthetic peptides on PLA2 in vitro ([14C]-arachidonic acid release); type: biochemical; conditions: peptides 1×10^−8 M, preincubated 15 min at 37° C.; compared with the peptides known as PLA2 inhibitors
T2 construct: 0.18 Unit PLA2 (Bovine pancreas, EC 3.1.1.4, Sigma); purchased Sigma; host or cells: bovine pancreas
T2 sequence (P00593 23-145): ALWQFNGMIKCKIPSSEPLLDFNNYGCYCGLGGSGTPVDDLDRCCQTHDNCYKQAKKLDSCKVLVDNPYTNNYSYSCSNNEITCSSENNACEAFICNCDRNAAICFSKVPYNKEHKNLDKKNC
From the text: It has been examined whether synthetic peptides contain inhibitory effect on PLA2 activity. A established PLA2 assay method was used to determine the enzymatic activity by measuring the release [^14C]-arachidonic acid from 1-acyl-2-[1-^14C]arachidonic acid-glycerophospho-ethanolamine (Biochem. Pharmacol. 54, 259–268, 1997). To determine the inhibitory activity, 0.18 Unit PLA2 (Bovine pancreas, EC 3.1.1.4, Sigma; 1.0 unit will hydrolyze […] of L-phosphatidylcholine to L-lysophosphatidylcholine and a fatty acid per min. at pH 8.0 at 37° C.) was preincubated for 15 minutes with the synthetic peptides (1×10^−8 M) at 37° C. in […] before adding 1-acyl-2-[1-^14C]arachidonic acid-glycerophospho-ethanolamine. The control was also PLA2 preincubated with buffer. After pre-incubation, PLA2 activity was assayed using sonicated liposomes, prepared as established method (Biochem. Biophys. Acta. 1083, 80–88, 1991). […] of 1-acyl-2-[1-^14C]arachidonic acid-glycerophospho-ethanolamine (about 2×10^5 dpm) was added in pre-incubated mixture, and incubated for 1 hr at 37° C. […]
For inhibitory test of the peptides given, each value is the mean of data from three separate experiments (S.D.<10%). The value of PLA2 activity incubated without peptides was determined as 100% PLA2 activity that is 5.57 pmole arachidonyl/hr. % Inhibition was shown in FIG. 1.

| Sequence | PLA2 activity activated by TGase (FIG. 3), result in words (PLA2 activated by TGase) | PLA2 activity (FIG. 1), result in words [1] |
| --- | --- | --- |
| KVLDGQDP [Peptide R2, synthetic peptide of the invention] | significantly reduced | significantly reduced |
| KVLDPVKG [Peptide R1, synthetic peptide of the invention] | significantly reduced | significantly reduced |

Source: US7037502B2, “Peptide with the amino acid sequence of KVLDGQDP having anti-inflammatory properties” (priority 2001, dated 2006)
